Molecular target: HLA-A*02:01 (Homo sapiens, UniProt P04439, D140Y/D185E/D98H/E176V/E277Q/G131W/G231S/I119V/I121R/I166T/I218V/L300P/L318F/N151K/N90K/P208A/P217A/Q86G/Q94H/R138H/R169H/T345S)
Experiment: MHC binding assay (UV-ligand exchange, β2m ELISA, peptide exchange yield)
Conditions: MHC class I binding score; binding to HLA-A*02:01 ranged by peptide exchange yield (UV-ligand exchange, β2m ELISA)
Excerpt: Candidate peptides for T cell based therapies according to the present invention were further tested for their MHC binding capacity (affinity). The individual peptide-MHC complexes were produced by UV-ligand exchange, where a UV-sensitive peptide is cleaved upon UV-irradiation, and exchanged with the peptide of interest as analyzed. Only peptide candidates that can effectively bind and stabilize the peptide-receptive MHC molecules prevent dissociation of the MHC complexes. To determine the yield of the exchange reaction, an ELISA was performed based on the detection of the light chain (β2m) of stabilized MHC complexes. The assay was performed as generally described in Rodenko et al. (Rodenko et al., 2006).
96 well MAXISorp plates (NUNC) were coated over night with 2 ug/ml streptavidin in PBS at room temperature, washed 4× and blocked for 1h at 37° C. in 2% BSA containing blocking buffer. […] Peptide-MHC monomers of the UV-exchange reaction were diluted 100 fold in blocking buffer. Samples were incubated for 1h at 37° C., washed four times, incubated with 2 ug/ml HRP conjugated anti-β2m for 1h at 37° C., washed again and detected with TMB solution that is stopped with […]. Absorption was measured at 450 nm. Candidate peptides that show a high exchange yield (preferably higher than 50%, most preferred higher than 75%) are generally preferred for a generation and production of antibodies or fragments thereof, and/or T cell receptors or fragments thereof, as they show sufficient avidity to the MHC molecules and prevent dissociation of the MHC complexes.

Row | Substance | Peptide exchange
1 | 1 (SLMEPPAVLLL; listed as Homo sapiens) [compound 1] | ″+++″ (≧50% = +++)
2 | 4 (GIMEHITKI; listed as Homo sapiens) [compound 4] | ″++++″ (≧75% = ++++)
3 | 6 (VLVSDGVHSV; listed as Homo sapiens) [compound 6] | ″+++″ (≧50% = +++)
4 | 9 (GAAKDLPGV; listed as Homo sapiens) [compound 9] | ″++″ (≧20% = ++)
5 | 10 (FLATFPLAAV; listed as Homo sapiens) [compound 10] | ″++++″ (≧75% = ++++)
6 | 12 (SLWPDPMEV; listed as Homo sapiens) [compound 12] | ″+++″ (≧50% = +++)
7 | 13 (YLMDESLNL; listed as Homo sapiens) [compound 13] | ″+++″ (≧50% = +++)
8 | 14 (AAYGGLNEKSFV; listed as Homo sapiens) [compound 14] | ″+++″ (≧50% = +++)
9 | 15 (VLLTFKIFL; listed as Homo sapiens) [compound 15] | ″++″ (≧20% = ++)
10 | 16 (VLFQGQASL; listed as Homo sapiens) [compound 16] | ″+++″ (≧50% = +++)
11 | 18 (YLVAKLVEV; listed as Homo sapiens) [compound 18] | ″++″ (≧20% = ++)
12 | 20 (RMIEYFIDV; listed as Homo sapiens) [compound 20] | ″+++″ (≧50% = +++)
13 | 21 (VLDELDMEL; listed as Homo sapiens) [compound 21] | ″++″ (≧20% = ++)
14 | 22 (IMEENPGIFAV; listed as Homo sapiens) [compound 22] | ″+++″ (≧50% = +++)
15 | 23 (VLLDDIFAQL; listed as Homo sapiens) [compound 23] | ″+++″ (≧50% = +++)
16 | 24 (SLSDGLEEV; listed as Homo sapiens) [compound 24] | ″++″ (≧20% = ++)
17 | 25 (FLPDEPYIKV; listed as Homo sapiens) [compound 25] | ″+++″ (≧50% = +++)
18 | 26 (ALLELAEEL; listed as Homo sapiens) [compound 26] | ″+++″ (≧50% = +++)
19 | 27 (ILADIVISA; listed as Homo sapiens) [compound 27] | ″+++″ (≧50% = +++)
20 | 28 (QLLDETSAITL; listed as Homo sapiens) [compound 28] | ″+++″ (≧50% = +++)
21 | 29 (KMLGIPISNILMV; listed as Homo sapiens) [compound 29] | ″+++″ (≧50% = +++)
22 | 30 (LILDWVPYI; listed as Homo sapiens) [compound 30] | ″+++″ (≧50% = +++)
23 | 31 (YLAPELFVNV; listed as Homo sapiens) [compound 31] | ″++″ (≧20% = ++)
24 | 32 (KLDDLTQDLTV; listed as Homo sapiens) [compound 32] | ″++″ (≧20% = ++)
25 | 33 (VLLSLLEKV; listed as Homo sapiens) [compound 33] | ″++″ (≧20% = ++)

Row | Substance | Peptide exchange
26 | 34 (ILVEADSLWVV; listed as Homo sapiens) [compound 34] | ″+++″ (≧50% = +++)
27 | 35 (KINDTIYEV; listed as Homo sapiens) [compound 35] | ″+++″ (≧50% = +++)
28 | 39 (SVAPNLPAV; listed as Homo sapiens) [compound 39] | ″+++″ (≧50% = +++)
29 | 41 (SLMPHIPGL; listed as Homo sapiens) [compound 41] | ″+++″ (≧50% = +++)
30 | 42 (VLLQKIVSA; listed as Homo sapiens) [compound 42] | ″+++″ (≧50% = +++)
31 | 43 (VLSSLEINI; listed as Homo sapiens) [compound 43] | ″++″ (≧20% = ++)
32 | 44 (ILDPISSGFLL; listed as Homo sapiens) [compound 44] | ″++″ (≧20% = ++)
33 | 45 (SLWQDIPDV; listed as Homo sapiens) [compound 45] | ″+++″ (≧50% = +++)
34 | 46 (ILTEENIHL; listed as Homo sapiens) [compound 46] | ″+++″ (≧50% = +++)
35 | 47 (ILLSVPLLVV; listed as Homo sapiens) [compound 47] | ″++″ (≧20% = ++)
36 | 50 (SLSELEALM; listed as Homo sapiens) [compound 50] | ″+++″ (≧50% = +++)
37 | 51 (LLPDLEFYV; listed as Homo sapiens) [compound 51] | ″++++″ (≧75% = ++++)
38 | 52 (FLLAHGLGFLL; listed as Homo sapiens) [compound 52] | ″++++″ (≧75% = ++++)
39 | 53 (KMIETDILQKV; listed as Homo sapiens) [compound 53] | ″++++″ (≧75% = ++++)
40 | 54 (SLLEQGKEPWMV; listed as Homo sapiens) [compound 54] | ″+++″ (≧50% = +++)
41 | 55 (SLLDLETLSL; listed as Homo sapiens) [compound 55] | ″++++″ (≧75% = ++++)
42 | 57 (TLAELQPPVQL; listed as Homo sapiens) [compound 57] | ″+++″ (≧50% = +++)
43 | 59 (IMEDIILTL; listed as Homo sapiens) [compound 59] | ″+++″ (≧50% = +++)
44 | 62 (VLLDVSAGQLLM; listed as Homo sapiens) [compound 62] | ″++++″ (≧75% = ++++)
45 | 63 (YLLPSGGSVTL; listed as Homo sapiens) [compound 63] | ″++″ (≧20% = ++)
46 | 64 (YAAPGGLIGV; listed as Homo sapiens) [compound 64] | ″++″ (≧20% = ++)
47 | 66 (FLDENIGGVAV; listed as Homo sapiens) [compound 66] | ″+++″ (≧50% = +++)
48 | 67 (TLLAEALVTV; listed as Homo sapiens) [compound 67] | ″+++″ (≧50% = +++)
49 | 68 (SLMELPRGLFL; listed as Homo sapiens) [compound 68] | ″++++″ (≧75% = ++++)
50 | 69 (FQLDPSSGVLVTV; listed as Homo sapiens) [compound 69] | ″+++″ (≧50% = +++)

Row | Substance | Peptide exchange
51 | 70 (GLLDYPVGV; listed as Homo sapiens) [compound 70] | ″+++″ (≧50% = +++)
52 | 71 (GILARIASV; listed as Homo sapiens) [compound 71] | ″+++″ (≧50% = +++)
53 | 72 (SLLELDGINL; listed as Homo sapiens) [compound 72] | ″+++″ (≧50% = +++)
54 | 73 (NIFDLQIYV; listed as Homo sapiens) [compound 73] | ″+++″ (≧50% = +++)
55 | 74 (ALLDPEVLSIFV; listed as Homo sapiens) [compound 74] | ″+++″ (≧50% = +++)
56 | 75 (GLLEVMVNL; listed as Homo sapiens) [compound 75] | ″+++″ (≧50% = +++)
57 | 76 (ILIDSIYKV; listed as Homo sapiens) [compound 76] | ″+++″ (≧50% = +++)
58 | 77 (ILVEADGAWVV; listed as Homo sapiens) [compound 77] | ″++++″ (≧75% = ++++)
59 | 78 (SLFSSLEPQIQPV; listed as Homo sapiens) [compound 78] | ″+++″ (≧50% = +++)
60 | 80 (FLYDNLVESL; listed as Homo sapiens) [compound 80] | ″++″ (≧20% = ++)
61 | 81 (FLFSQLQYL; listed as Homo sapiens) [compound 81] | ″++″ (≧20% = ++)
62 | 82 (FLSSVTYNL; listed as Homo sapiens) [compound 82] | ″+++″ (≧50% = +++)
63 | 83 (ILAPTVMMI; listed as Homo sapiens) [compound 83] | ″+++″ (≧50% = +++)
64 | 84 (VTFGEKLLGV; listed as Homo sapiens) [compound 84] | ″++″ (≧20% = ++)
65 | 85 (KMSELRVTL; listed as Homo sapiens) [compound 85] | ″+++″ (≧50% = +++)
66 | 86 (NLIGKIENV; listed as Homo sapiens) [compound 86] | ″+++″ (≧50% = +++)
67 | 87 (ALPEAPAPLLPHIT; listed as Homo sapiens) [compound 87] | ″++″ (≧20% = ++)
68 | 88 (FLLVGDLMAV; listed as Homo sapiens) [compound 88] | ″+++″ (≧50% = +++)
69 | 89 (YILPTETIYV; listed as Homo sapiens) [compound 89] | ″++++″ (≧75% = ++++)
70 | 90 (TLLQIIETV; listed as Homo sapiens) [compound 90] | ″+++″ (≧50% = +++)
71 | 91 (IMQDFPAEIFL; listed as Homo sapiens) [compound 91] | ″++++″ (≧75% = ++++)
72 | 92 (YLIPFTGIVGL; listed as Homo sapiens) [compound 92] | ″++″ (≧20% = ++)
73 | 93 (LLQAIKLYL; listed as Homo sapiens) [compound 93] | ″++″ (≧20% = ++)

From patent publication US20170037111A1, “Novel peptides and combination of peptides for use in immunotherapy against ovarian cancer and other cancers” (immatics biotechnologies GmbH, priority 2015, published 2017)
